Reference: the supplement of paper PMC7877785
± gives the uncertainty stated by the source.

Test: self-splicing fitness, log relative to wild type (ln ratio); higher = more splicing; Tetrahymena group I intron in knt gene, E. coli kanamycin selection, DiMSum; sequences stand for … in CUCUCU…GGAGGGAAAAGUUAUCAGGCAUGCACCUGGUAGCUAGUCUUUAAACCAAUAGAUUGCAUCGGUUUAAAAGGCAAGACCGUCAAAUUGCGGGAAAGGGGUCAACAGCCGUUCAGUACCAAGUCUCAGGGGAAACUUUGAGAUGGCCUUGCAAAGGGUAUGGUAAUAAGCUGACGGACAUGGUCCUAACCACGCAGCCAAGUCCUAAGUCAACAGAUCUUCUGUUGAUAUGGAUGCAGUUCACAGACUAAAUGUCGGUCGGGGAAGAUGUAUUCUUCUCAUAAGAUAUAGUCGGACCUCUCCUUAAUGGGAGCUAGCGGAUGAAGUGAUGCAACACUGGAGCCGCUGGGAACUAAUUUGUAUGCGAAAGUAUAUUGAUUAGUUUUGGAGUACUCGUGGUCG
Summary of the method: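 Six replicate transformations of E. coli BL21(DE3) with a pET-22b(+) library were grown overnight at 37°C or 30°C. The library randomised all eight P1ex-region intron nucleotides, the intron lying in the knt kanamycin-resistance gene, and plates were LB agar with or without 25 μg/mL kanamycin plus 100 μg/mL carbenicillin, 50 μM IPTG and 0.2% rhamnose. Pooled colonies were amplicon-sequenced on an Illumina HiSeq 2500, and fitness is the DiMSum error-weighted combination of wild-type-normalised replicate fold changes, kanamycin versus none.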

Row | Sequence | self-splicing fitness (ln) (30 °C) | self-splicing fitness (ln) (37 °C)
1 | UGACAGCAAUAUUACGACGU | -1.48 ± 0.099 | -0.473 ± 0.13
2 | UCGUAGCAAUAUUACGAAUA |  | -2.55 ± 0.27
3 | AUUGAGCAAUAUUACGCGCA | -1.48 ± 0.16 | -1.08 ± 0.2
4 | UCGUAGCAAUAUUACGUCUG | -0.251 ± 0.091 | -0.589 ± 0.12
5 | CAACAGCAAUAUUACGGAUU | -2.92 ± 0.13 | -1.94 ± 0.14
6 | CGCAAGCAAUAUUACGGAUA | -3.52 ± 0.22 | -2.23 ± 0.16
7 | CUUCAGCAAUAUUACGACGU | -3.67 ± 0.21 | -2.12 ± 0.21
8 | GAAGAGCAAUAUUACGCAUU | -4.28 ± 0.2 | -2.2 ± 0.2
9 | GUCAAGCAAUAUUACGUUCU | -1.88 ± 0.07 | -1.3 ± 0.087
10 | UAAGAGCAAUAUUACGAAUC | -2.87 ± 0.29 | -1.79 ± 0.35
11 | ACUUAGCAAUAUUACGAACG | -1.16 ± 0.089 | -0.581 ± 0.1
12 | GCUUAGCAAUAUUACGUGUU | -0.915 ± 0.081 | -0.409 ± 0.087
13 | AUGCAGCAAUAUUACGCGCC | -0.788 ± 0.15 | -0.038 ± 0.16
14 | CUGGAGCAAUAUUACGCUUG | -3.94 ± 0.34 | -2.35 ± 0.45
15 | GUAGAGCAAUAUUACGCUAG | -0.754 ± 0.13 | 0.329 ± 0.21
16 | CUGCAGCAAUAUUACGGGUU | -3.86 ± 0.17 | -2.74 ± 0.14
17 | ACGAAGCAAUAUUACGACCC | -0.88 ± 0.22 | 0.121 ± 0.26
18 | AAUAAGCAAUAUUACGAAAA | -2.98 ± 0.28 | -1.76 ± 0.2
19 | AGGCAGCAAUAUUACGGCAU | -0.346 ± 0.062 | 0.15 ± 0.09
20 | CUAUAGCAAUAUUACGUUGG | -3.71 ± 0.16 | -2.79 ± 0.17
21 | GUUUAGCAAUAUUACGUAGA | -2.37 ± 0.15 | -0.622 ± 0.2
22 | CGCUAGCAAUAUUACGAUCG | -1.17 ± 0.12 | -0.644 ± 0.14
23 | UAUUAGCAAUAUUACGGAGU | -3.84 ± 0.43 | -2.01 ± 0.29
24 | CGGGAGCAAUAUUACGGUAC | -2.19 ± 0.38 | 
25 | AUAGAGCAAUAUUACGGGAA | -3.43 ± 0.26 | -2.46 ± 0.25
26 | GAUAAGCAAUAUUACGACGA | -0.165 ± 0.12 | -0.626 ± 0.11

Row | Sequence | self-splicing fitness (ln) (30 °C) | self-splicing fitness (ln) (37 °C)
27 | GUGUAGCAAUAUUACGAGGU | -2.33 ± 0.44 | -1.61 ± 0.49
28 | CGGAAGCAAUAUUACGCCUA | -1.72 ± 0.21 | -0.963 ± 0.18
29 | AGGCAGCAAUAUUACGAAAC | -3.58 ± 0.22 | -1.8 ± 0.19
30 | GUUCAGCAAUAUUACGUAUC | -0.532 ± 0.089 | -0.756 ± 0.1
31 | AAUGAGCAAUAUUACGGUAU |  | -1.81 ± 0.19
32 | CGGGAGCAAUAUUACGUACU |  | -1.86 ± 0.38
33 | AGCGAGCAAUAUUACGGAAC | -3.53 ± 0.32 | -1.5 ± 0.29
34 | AGCGAGCAAUAUUACGUUAA | -3.86 ± 0.37 | -2.67 ± 0.3
35 | GACUAGCAAUAUUACGGCGA | -0.738 ± 0.079 | -0.303 ± 0.081
36 | UAAGAGCAAUAUUACGUCAG | -3.04 ± 0.25 | -2.33 ± 0.33
37 | AUUGAGCAAUAUUACGUGCG | -3.83 ± 0.24 | -2.02 ± 0.16
38 | UCACAGCAAUAUUACGCGUU | -4 ± 0.21 | -2.13 ± 0.17
39 | ACGUAGCAAUAUUACGCCAC | -4.5 ± 0.39 | -2.54 ± 0.44
40 | CACCAGCAAUAUUACGGCAG | -0.179 ± 0.045 | -0.218 ± 0.063
41 | UGUUAGCAAUAUUACGGCCA | 0.385 ± 0.17 | 0.166 ± 0.14
42 | CUAAAGCAAUAUUACGCCCC | -1.15 ± 0.45 | 
43 | ACCCAGCAAUAUUACGUAUG | -3.89 ± 0.14 | -1.77 ± 0.11
44 | AACAAGCAAUAUUACGGCUG | -0.419 ± 0.059 | -0.225 ± 0.086
45 | CCUUAGCAAUAUUACGCUCU | -3.8 ± 0.43 | -0.731 ± 0.38
46 | CGUGAGCAAUAUUACGGUAA |  | -2.41 ± 0.25
47 | UGCAAGCAAUAUUACGAGGG | -3.56 ± 0.23 | -1.77 ± 0.17
48 | UGUAAGCAAUAUUACGAUGC | -3.75 ± 0.27 | -2.34 ± 0.28
49 | UUCUAGCAAUAUUACGUUAA | -2.15 ± 0.23 | -1.32 ± 0.18
50 | CUGCAGCAAUAUUACGGCUC | -2.57 ± 0.22 | -2.96 ± 0.43
51 | GUGUAGCAAUAUUACGGUAC | -2.1 ± 0.22 | -1.43 ± 0.25
52 | CCUCAGCAAUAUUACGGGGC | -3.68 ± 0.14 | -2.98 ± 0.19

Row | Sequence | self-splicing fitness (ln) (30 °C) | self-splicing fitness (ln) (37 °C)
53 | UUUGAGCAAUAUUACGAUUA | -2.13 ± 0.41 | -2.41 ± 0.36
54 | GAGGAGCAAUAUUACGGUUA | -2.45 ± 0.28 | -2.2 ± 0.3
55 | GCAGAGCAAUAUUACGGAAC |  | -0.993 ± 0.17
56 | UCCGAGCAAUAUUACGGCUA | -0.436 ± 0.096 | -0.18 ± 0.1
57 | ACACAGCAAUAUUACGCGAC | -2.72 ± 0.098 | -2.15 ± 0.11
58 | CAAUAGCAAUAUUACGUCUA | -2.78 ± 0.19 | -2.52 ± 0.21
59 | GGACAGCAAUAUUACGGCCU | -2.3 ± 0.13 | -1.13 ± 0.12
60 | CAUCAGCAAUAUUACGUGAU | -2.78 ± 0.078 | -0.987 ± 0.086
61 | UCACAGCAAUAUUACGGAUA | -2.87 ± 0.16 | -1.47 ± 0.12
62 | UUCGAGCAAUAUUACGCUUG | -3.26 ± 0.41 | 
63 | AAGGAGCAAUAUUACGCGGA | -2.07 ± 0.13 | -2.71 ± 0.2
64 | ACUGAGCAAUAUUACGUCCU | -2.07 ± 0.11 | -0.865 ± 0.12
65 | CCCAAGCAAUAUUACGAGUA | -4.12 ± 0.18 | -2.5 ± 0.14
66 | GUUGAGCAAUAUUACGUUGC | -2.03 ± 0.42 | 
67 | CAACAGCAAUAUUACGUGAG | -0.531 ± 0.049 | -0.233 ± 0.07
68 | CCCGAGCAAUAUUACGUCAC | -2.9 ± 0.37 | -2.27 ± 0.49
69 | AAACAGCAAUAUUACGGACU | -0.635 ± 0.097 | -0.406 ± 0.12
70 | AGCCAGCAAUAUUACGGACC | -0.609 ± 0.095 | -0.386 ± 0.11
71 | CAUAAGCAAUAUUACGCCAA | -2.33 ± 0.17 | -2.69 ± 0.32
72 | CGAAAGCAAUAUUACGACGA | -0.59 ± 0.094 | 0.312 ± 0.09
73 | AUCAAGCAAUAUUACGGGAA | -1.87 ± 0.13 | -0.563 ± 0.12
74 | CCACAGCAAUAUUACGACGG | -3.63 ± 0.12 | -1.63 ± 0.1
75 | CAAUAGCAAUAUUACGAGAU | -2.72 ± 0.12 | -2.82 ± 0.17
76 | GCUAAGCAAUAUUACGUGUA | -1.29 ± 0.087 | -0.0918 ± 0.088
77 | CAUGAGCAAUAUUACGUCGU | -3.75 ± 0.18 | -3.34 ± 0.19
78 | UAACAGCAAUAUUACGAUGU | -2.73 ± 0.13 | -2.08 ± 0.14
